Assays:
[1] = target: HBV purified from blood of chronic hepatitis B patients (hHBV virions carrying hHBsAg) (hepatitis B virus from CHB patients); assay: calculated from three BLI results by the multivalency equation of paragraph 89
[2] = target: hHBV treated with sialidase S (hepatitis B virus from CHB patients); assay: BLI, Siglec-3.Fc immobilized on the sensor, sialidase S-treated hHBV in solution
[3] = target: HBV purified from blood of chronic hepatitis B patients (hHBV virions carrying hHBsAg) (hepatitis B virus from CHB patients); assay: BLI, Siglec-3.Fc immobilized on the sensor, untreated hHBV in solution
[4] = target: HBV purified from blood of chronic hepatitis B patients (hHBV virions carrying hHBsAg) (hepatitis B virus from CHB patients); assay: BLI, Siglec-3.Fc immobilized on the sensor, hHBV in solution

“recombinant human Siglec-3 ECD.Fc fusion protein (from UniProt P20138 18-259)” gave a valence (N) [1] of 2, a Kd [2] of 0.384 nM and a koff [2] of 0.000273 s⁻¹. The kon [2] was 711000 M⁻¹ s⁻¹, the Kd [3] was 0.591 nM and the koff [3] was 0.000697 s⁻¹. The kon [3] was 1.18e+06 M⁻¹ s⁻¹, the Kd [4] was 0.115 nM and the koff [4] was 0.000358 s⁻¹. For the same substance, the kon [4] was 3.11e+06 M⁻¹ s⁻¹.

Reference: US20210292413A1
